Results published in patent publication US9988428B2, “Pegylated bioactive peptides and uses thereof” (GRIFFON PHARMACEUTICALS INC., priority 2016, dated 2018).
Non-standard residues stand in square brackets, D forms with d. No end group written: not given here. hArg = N=C(N)NCCCC[C@H](N)C(=O)O; Orn = NCCC[C@H](N)C(=O)O

Legend:
[1] = target: T1, human GHRH receptor (Homo sapiens, UniProt Q02643); test: Hit Hunter (DiscoveRx) cAMP agonist assay in cells expressing GHRH receptor; assay type: cell-based; conditions: for In vitro potency / biological activity (in words): effect of Cys-PEG substitution compared with native peptide
T1 sequence (Q02643 23-423): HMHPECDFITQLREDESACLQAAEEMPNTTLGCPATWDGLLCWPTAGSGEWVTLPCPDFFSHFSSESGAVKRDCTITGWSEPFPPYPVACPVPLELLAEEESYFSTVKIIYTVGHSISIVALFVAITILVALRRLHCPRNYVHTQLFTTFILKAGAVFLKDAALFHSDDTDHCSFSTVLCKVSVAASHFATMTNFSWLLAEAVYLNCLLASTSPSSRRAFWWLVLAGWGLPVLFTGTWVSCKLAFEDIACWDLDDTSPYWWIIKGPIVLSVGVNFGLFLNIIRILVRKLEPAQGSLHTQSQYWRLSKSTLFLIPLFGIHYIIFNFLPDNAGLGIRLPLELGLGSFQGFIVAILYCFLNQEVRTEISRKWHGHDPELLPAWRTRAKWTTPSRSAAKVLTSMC
Procedure: For agonist determination, cells were incubated with sample to induce response. Media was aspirated from cells and replaced with 15 μL 2:1 HBSS/10 mM Hepes: cAMP XS+Ab reagent. […] Vehicle concentration was 1%. After appropriate compound incubation, assay signal was generated through incubation with 20 μL cAMP XS+ED/CL lysis cocktail for one hour followed by incubation with 20 μL cAMP XS+EA reagent for three hours at room temperature. Microplates were read following signal generation with a PerkinElmer Envision™ instrument for chemiluminescent signal detection. Compound activity was analyzed using CBIS data analysis suite (ChemInnovation, CA).

[2] = system: Growth Hormone secretion; test: GH release after subcutaneous injection of GHRH analogs in Sprague-Dawley rats (plasma GH ELISA); assay type: in vivo; conditions: female rats; for Growth hormone AUC (0-90 min): single subcutaneous dose 0.04 mg/kg, plasma GH, FIG. 1
Excerpt: Sprague-Dawley rats (female, weighing from 250 to 300 g) were obtained from Charles River Inc. Animals were used according to a protocol of the Animal Care Committee along with the principles of the Guide for the Care and Use of Experimental Animals of the Canadian Council on Animal Care. The animals were maintained on standard laboratory chow under a 12:12 light:dark cycle. They were kept in groups of 4 rats per cage. The animals were anesthetized with isoflurane 2.5%. A mid-section opening was made in the neck to expose the carotid artery. The carotid artery was canulated with polypropylene tubing (PE-50) to allow blood withdrawal. After surgical preparation, rats received a subcutaneous injection of GHRH analog (10-100 μg/kg) dissolved in 20 mM AcONa+5% mannitol at pH 5). Blood samples (400 μL/time point) were collected from 2-4 animals per group. […] Blood was collected into microtainer tubes containing K3EDTA, mixed and immediately centrifuged at 13,000 RPM in a desktop centrifuge for 2 minutes. The plasma was collected and placed into a screw cap Eppendorf™ tube and quickly frozen in liquid nitrogen. The samples were then kept at −80° C. until assayed. Determination of GH levels was performed as described below.
Rat and mouse plasma samples were vortexed carefully and centrifuged at 9,000 RPM for 2 min at 4° C. […] The remainder of the procedure was performed according to the manufacturer's instructions, and the data obtained were analyzed using GraphPad Prism™ software. […] Growth hormone levels were determined in timed-aliquots of blood and are depicted in FIG. 1. […]
The N-terminal part of the GHRH peptide is known to be buried in the extracellular loops and transmembrane domains of the GHRH receptor, and thus almost all of the amino acids in the N-terminal domain participate in high affinity binding of the GHRH peptide to the receptor. […] Briefly, peptides (0.04 mg/kg) were subcutaneously injected in female rats and growth hormone levels were determined in timed aliquots of blood drawn from the animals.

| Molecule | In vitro potency / biological activity (in words) [1] | other results |
| --- | --- | --- |
| YaDAIFTASYROVLC(Peg-2K)QLSAROALQDILSKN-NH2 (Y[dA]DAIFTASYR[Orn]VLC(PEG 2 kDa)QLSAR[Orn]ALQDILSKN-NH2) [Analog 5, GHRH analog, Cys conjugated to about 2 kDa PEG at position 15] | reduced potency | – |
| YaDAIFTASYROVLAQLSC(Peg-2K)ROALQDILSKN-NH2 (Y[dA]DAIFTASYR[Orn]VLAQLSC(PEG 2 kDa)R[Orn]ALQDILSKN-NH2) [Analog 4, GHRH analog, Cys conjugated to about 2 kDa PEG at position 19] | reduced potency | – |
| YaDAIFTAC(Peg-40K)YROVLAQLSAROALQDILS(Har)-NH2 (Y[dA]DAIFTAC(PEG 40 kDa)YR[Orn]VLAQLSAR[Orn]ALQDILS[hArg]-NH2) [Analog 16, GHRH analog, about 40 kDa PEG on Cys9, C-terminal Har-NH2] | without loss of in vitro biological activity | – |
| YaDAIFTAC(Peg-5K)YROVLAQLSAROALQDILS(Har)-NH2 (Y[dA]DAIFTACYR[Orn]VLAQLSAR[Orn]ALQDILS[hArg]-NH2; not fully specified (residue 9); printed as YaDAIFTAC(Peg-5K)YROVLAQLSAROALQDILS(Har)-NH2) [Analog 15, GHRH analog, 5K PEG on Cys9, C-terminal Har-NH2] | without loss of in vitro biological activity | – |
| YaDAIFTAC(Peg-2K)YROVLAQLSAROALQDILS-(Har)-NH2 (Y[dA]DAIFTAC(PEG 2 kDa)YR[Orn]VLAQLSAR[Orn]ALQDILS[hArg]-NH2) [Analog 10, GHRH analog, about 2 kDa PEG on Cys9, C-terminal Har-NH2] | – | Fold more potent than the native peptide ([1]; Table 3 experiment, versus GHRH1-29): ~14 fold |
| CC[C@H](C)[C@H](NC(=O)[C@H](C)NC(=O)[C@H](CC(=O)O)NC(=O)[C@H](C)NC(=O)[C@@H](N)Cc1ccc(O)cc1)C(=O)N[C@@H](Cc1ccccc1)C(=O)N[C@H](C(=O)N[C@@H](CC(N)=O)C(=O)N[C@@H](CO)C(=O)N[C@@H](Cc1ccc(O)cc1)C(=O)N[C@@H](CCCNC(=N)N)C(=O)N[C@@H](CCCCN)C(=O)N[C@H](C(=O)N[C@@H](CC(C)C)C(=O)NCC(=O)N[C@@H](CCC(N)=O)C(=O)N[C@@H](CC(C)C)C(=O)N[C@@H](CO)C(=O)N[C@@H](C)C(=O)N[C@@H](CCCNC(=N)N)C(=O)N[C@@H](CCCCN)C(=O)N[C@@H](CC(C)C)C(=O)N[C@@H](CC(C)C)C(=O)N[C@@H](CCC(N)=O)C(=O)N[C@@H](CC(=O)O)C(=O)N[C@H](C(=O)N[C@@H](CCSC)C(=O)N[C@@H](CO)C(=O)N[C@@H](CCCNC(=N)N)C(N)=O)[C@@H](C)CC)C(C)C)[C@@H](C)O [GHRH1-29, reference compound] | – | Max. response (%) ([1]; Table 3, independent experiment): 112.97% |
| YaDAIFTC(Peg-2K)SYROVLAQLSAROALQDILSKN-NH2 (Y[dA]DAIFTC(PEG 2 kDa)SYR[Orn]VLAQLSAR[Orn]ALQDILSKN-NH2) [Analog 7, GHRH analog, Cys conjugated to about 2 kDa PEG at position 8] | reduced potency | Growth hormone AUC (0-90 min) [2]: 15657 ng/ml/90 min |
| YaDAIFTASYROVLAQLSAROALQDC(Peg-2K)LSKN-NH2 (Y[dA]DAIFTASYR[Orn]VLAQLSAR[Orn]ALQDC(PEG 2 kDa)LSKN-NH2) [Analog 8, GHRH analog, Cys conjugated to about 2 kDa PEG at position 26] | reduced potency | – |
| YaDAIFTASYROVLAQLSAROALQDILC(Peg-2K)KN-NH2 (Y[dA]DAIFTASYR[Orn]VLAQLSAR[Orn]ALQDILC(PEG 2 kDa)KN-NH2) [Analog 1, GHRH analog, Cys conjugated to about 2 kDa PEG at position 28] | – | Stimulation of GH secretion (in words) ([2]; subcutaneous 0.04 mg/kg, FIG. 1 / FIG. 2): potently stimulated GH secretion |
| YaDAIFTASYROVLAC(Peg-2K)LSAROALQDILSKN-NH2 (Y[dA]DAIFTASYR[Orn]VLAC(PEG 2 kDa)LSAR[Orn]ALQDILSKN-NH2) [Analog 9, GHRH analog, Cys conjugated to about 2 kDa PEG at position 16] | reduced potency | – |
| YaDAIFTAC(Peg-2K)YROVLAQLSAROALQDILSKN-NH2 (Y[dA]DAIFTAC(PEG 2 kDa)YR[Orn]VLAQLSAR[Orn]ALQDILSKN-NH2) [Analog 6, GHRH analog, Cys conjugated to about 2 kDa PEG at position 9] | – | Growth hormone AUC (0-90 min) [2]: 29075 ng/ml/90 min |
